Data taken from the supplement of paper PMC7877785.
± gives the uncertainty stated by the source.

Assay: self-splicing fitness, log relative to wild type (ln ratio); higher = more splicing; Tetrahymena group I intron in knt gene, E. coli kanamycin selection, DiMSum; sequences stand for … in CUCUCU…GGAGGGAAAAGUUAUCAGGCAUGCACCUGGUAGCUAGUCUUUAAACCAAUAGAUUGCAUCGGUUUAAAAGGCAAGACCGUCAAAUUGCGGGAAAGGGGUCAACAGCCGUUCAGUACCAAGUCUCAGGGGAAACUUUGAGAUGGCCUUGCAAAGGGUAUGGUAAUAAGCUGACGGACAUGGUCCUAACCACGCAGCCAAGUCCUAAGUCAACAGAUCUUCUGUUGAUAUGGAUGCAGUUCACAGACUAAAUGUCGGUCGGGGAAGAUGUAUUCUUCUCAUAAGAUAUAGUCGGACCUCUCCUUAAUGGGAGCUAGCGGAUGAAGUGAUGCAACACUGGAGCCGCUGGGAACUAAUUUGUAUGCGAAAGUAUAUUGAUUAGUUUUGGAGUACUCGUGGUCG
Procedure, shortened: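 A randomised library covering all eight P1ex-region intron nucleotides was built with the intron in the knt kanamycin-resistance gene on pET-22b(+) and held in E. coli BL21(DE3). Cells were grown overnight at 37°C or 30°C on LB agar, with or without 25 μg/mL kanamycin, plus 100 μg/mL carbenicillin, 50 μM IPTG and 0.2% rhamnose, and pooled colonies were amplicon-sequenced on an Illumina HiSeq 2500. DiMSum fitness is the error-weighted combination of wild-type-normalised replicate fold changes, kanamycin versus none.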

## CACUAGCAAUAUUACGCUCG
30 °C
  self-splicing fitness (ln): -0.657 ± 0.073
37 °C
  self-splicing fitness (ln): 0.214 ± 0.089

## GGGCAGCAAUAUUACGGCUA
30 °C
  self-splicing fitness (ln): -0.49 ± 0.13
37 °C
  self-splicing fitness (ln): 0.227 ± 0.14

## CACGAGCAAUAUUACGAGUU
30 °C
  self-splicing fitness (ln): -4.28 ± 0.18
37 °C
  self-splicing fitness (ln): -2.2 ± 0.12

## CAUGAGCAAUAUUACGGCCC
30 °C
  self-splicing fitness (ln): -2.29 ± 0.29

## AAGGAGCAAUAUUACGGAGG
30 °C
  self-splicing fitness (ln): -2.97 ± 0.22
37 °C
  self-splicing fitness (ln): -1.59 ± 0.23

## CGACAGCAAUAUUACGUAUG
30 °C
  self-splicing fitness (ln): -1.26 ± 0.076
37 °C
  self-splicing fitness (ln): -1.36 ± 0.1

## GAAGAGCAAUAUUACGGUUU
30 °C
  self-splicing fitness (ln): -1.52 ± 0.12
37 °C
  self-splicing fitness (ln): -0.796 ± 0.16

## UCAUAGCAAUAUUACGAGUG
30 °C
  self-splicing fitness (ln): -1.8 ± 0.11
37 °C
  self-splicing fitness (ln): -0.999 ± 0.11

## UACUAGCAAUAUUACGAGUC
30 °C
  self-splicing fitness (ln): -2.67 ± 0.31
37 °C
  self-splicing fitness (ln): -1.09 ± 0.14

## CCAAAGCAAUAUUACGGACA
30 °C
  self-splicing fitness (ln): -2.84 ± 0.2
37 °C
  self-splicing fitness (ln): -2.86 ± 0.25

## AUACAGCAAUAUUACGUGAC
30 °C
  self-splicing fitness (ln): -1.57 ± 0.095
37 °C
  self-splicing fitness (ln): -0.945 ± 0.13

## ACAAAGCAAUAUUACGACCU
30 °C
  self-splicing fitness (ln): 0.0994 ± 0.076
37 °C
  self-splicing fitness (ln): 0.311 ± 0.091

## CAUGAGCAAUAUUACGAGUA
30 °C
  self-splicing fitness (ln): -2.36 ± 0.21
37 °C
  self-splicing fitness (ln): -1.12 ± 0.24

## CCUCAGCAAUAUUACGCGAA
30 °C
  self-splicing fitness (ln): -3.88 ± 0.34
37 °C
  self-splicing fitness (ln): -3.79 ± 0.34

## GAGAAGCAAUAUUACGAGAC
30 °C
  self-splicing fitness (ln): -2.38 ± 0.3
37 °C
  self-splicing fitness (ln): -2.64 ± 0.28

## GUCUAGCAAUAUUACGUCUC
30 °C
  self-splicing fitness (ln): 0.162 ± 0.096
37 °C
  self-splicing fitness (ln): -0.048 ± 0.096

## UCCAAGCAAUAUUACGUCUG
30 °C
  self-splicing fitness (ln): -4 ± 0.23
37 °C
  self-splicing fitness (ln): -3.01 ± 0.2

## GCCUAGCAAUAUUACGAGAA
37 °C
  self-splicing fitness (ln): -1.26 ± 0.4

## GCCCAGCAAUAUUACGGAGU
30 °C
  self-splicing fitness (ln): -2.57 ± 0.084
37 °C
  self-splicing fitness (ln): -0.683 ± 0.085

## CACGAGCAAUAUUACGGCGU
30 °C
  self-splicing fitness (ln): -2.68 ± 0.21
37 °C
  self-splicing fitness (ln): -2.53 ± 0.26

## AACGAGCAAUAUUACGAGAG
30 °C
  self-splicing fitness (ln): -3.41 ± 0.15
37 °C
  self-splicing fitness (ln): -1.98 ± 0.16

## GUUAAGCAAUAUUACGUUUU
30 °C
  self-splicing fitness (ln): -3.11 ± 0.15
37 °C
  self-splicing fitness (ln): -1.7 ± 0.16

## GGGGAGCAAUAUUACGGCAU
30 °C
  self-splicing fitness (ln): -1.9 ± 0.13
37 °C
  self-splicing fitness (ln): -1.53 ± 0.15

## CGGAAGCAAUAUUACGAAGG
30 °C
  self-splicing fitness (ln): -1.17 ± 0.11
37 °C
  self-splicing fitness (ln): -0.983 ± 0.18

## UCUCAGCAAUAUUACGAGCC
30 °C
  self-splicing fitness (ln): -1.14 ± 0.19
37 °C
  self-splicing fitness (ln): -1.68 ± 0.41

## CUUGAGCAAUAUUACGCAGU
30 °C
  self-splicing fitness (ln): -2.73 ± 0.23
37 °C
  self-splicing fitness (ln): -2.64 ± 0.37

## UUCUAGCAAUAUUACGCGAU
30 °C
  self-splicing fitness (ln): -1.99 ± 0.22

## CCCUAGCAAUAUUACGUUUU
30 °C
  self-splicing fitness (ln): -3.59 ± 0.15
37 °C
  self-splicing fitness (ln): -2.2 ± 0.14

## GUUGAGCAAUAUUACGAAGG
30 °C
  self-splicing fitness (ln): -3.35 ± 0.41
37 °C
  self-splicing fitness (ln): -2.68 ± 0.4

## GUAAAGCAAUAUUACGUUUG
30 °C
  self-splicing fitness (ln): -2.28 ± 0.081
37 °C
  self-splicing fitness (ln): -1.34 ± 0.094

## UUGUAGCAAUAUUACGAAUA
30 °C
  self-splicing fitness (ln): -1.74 ± 0.15
37 °C
  self-splicing fitness (ln): -1.64 ± 0.14

## UAGUAGCAAUAUUACGUGAC
30 °C
  self-splicing fitness (ln): -2.58 ± 0.15
37 °C
  self-splicing fitness (ln): -2.47 ± 0.18

## CGCCAGCAAUAUUACGAUUG
30 °C
  self-splicing fitness (ln): -0.454 ± 0.06
37 °C
  self-splicing fitness (ln): 0.047 ± 0.083

## GUGCAGCAAUAUUACGUCGC
30 °C
  self-splicing fitness (ln): -1.5 ± 0.28
37 °C
  self-splicing fitness (ln): -0.148 ± 0.22

## UGUAAGCAAUAUUACGAGCA
30 °C
  self-splicing fitness (ln): -0.193 ± 0.14
37 °C
  self-splicing fitness (ln): 0.404 ± 0.2

## AACGAGCAAUAUUACGUACC
30 °C
  self-splicing fitness (ln): -2.91 ± 0.23
37 °C
  self-splicing fitness (ln): -1.9 ± 0.2

## UCAGAGCAAUAUUACGUGAG
30 °C
  self-splicing fitness (ln): -0.959 ± 0.054
37 °C
  self-splicing fitness (ln): -0.838 ± 0.081

## CUUUAGCAAUAUUACGUUCU
30 °C
  self-splicing fitness (ln): -3.16 ± 0.25
37 °C
  self-splicing fitness (ln): -2.78 ± 0.29

## AACGAGCAAUAUUACGAGCA
30 °C
  self-splicing fitness (ln): -2.69 ± 0.18
37 °C
  self-splicing fitness (ln): -1.97 ± 0.22
